Here are results for one protein from US5559019A, “Protein serine kinase, SRPK1” (The Regents of the University of California, priority 1994, dated 1996).

Substrate in this series: Nc1ncnc2c1ncn2[C@@H]1O[C@H](COP(=O)(O)OP(=O)(O)OP(=O)(O)O)[C@@H](O)[C@H]1O
Put plainly: SRPK1 kinase assay, determination of Km for ATP (double-reciprocal plots, SF2/ASF as substrate). Format: biochemical, human. The following applies: other: ATP titrated against four SF2/ASF concentrations (bacterially expressed SF2/ASF as substrate), pH 7.4, 30.0 °C. The protocol: FIG. 7 describes the kinetic properties of SRPK1. […] Different ATP concentrations were titrated against four SF2/ASF concentrations (.diamond-solid.0.05 μM; .circle-solid.0.1 μM; Δ0.05 μM; .diamond.0.7 μM). […] Five SF2/ASF concentrations (0.05 μM, 0.1 μM, 0.25 μM, 0.5 μM, and 1.0 μM) and four MBP concentrations (2.5 μM, 5.0 μM, 12.5 μM, and 25 μM) were used in the phosphorylation reactions. Saturating ATP (100 μM) and SRPK1 (27,000 units) were used in these reactions.
0.5 μg of purified SC35 or SF2/ASF was used as a substrate in a final volume of 20 μl kinase assay mixture containing 50 mM Tris-pH7.4, 10 mM MgCl2, 1 mM DTT, 2 μM ATP, and 2 μCi [^32 P-]ATP. The reaction was initiated by adding 2 μl of each column fraction and incubated at room temperature for 15 min. Proteins were, resolved in a 12.5% SDS gel. After staining and autoradiography, gel slices containing radioactive proteins were quantitated in a liquid scintillation counter. For saturation phosphorylation of SF2/ASF, 100 μM ATP was used, and the reaction was carried out at 30° C. for 2 hours.
SRPK1 is specific for splicing factors containing an SR domain as shown in EXAMPLE 4. Kinetic analyses were carried out to further characterize the kinase. […] The kinase activity depended on ATP concentration with a Km for ATP of 10 μM (FIG. 7A). […]

B1: SRPK1 (SR protein-specific kinase, 92 kD) purified from Hela cell S100 extracts, SEQ ID NO:2 (Homo sapiens) (protein)
chain: MERKVLALQARKKRTKAKKDKAQRKSETQHRGSAPHSESDLPEQEEEILGSDDDEQEDPNDYCKGGYHLVKIGDLFNGRYHVIRKLGWGHFSTVWLSWDIQGKKFVAMKVVKSAEHYTETALDEIRLLKSVRNSDPNDPNREMVVQLLDDFKISGVNGTHICMVFEVLGHHLLKWIIKSNYQGLPLPCVKKIIQQVLQGLDYLHTKCRIIHTDIKPENILLSVNEQYIRRLAAEATEWQRSGAPPPSGSAVSTAPQPKPADKMSKNKKKKLKKKQKRQAELLEKRMQEIEEMEKESGPGQKRPNKQEESESPVERPLKENPPNKMTQEKLEESSTIGQDQTLMERDTEGGAAEINCNGVIEVINYTQNSNNETLRHKEDLHNANDCDVQNLNQESSFLSSQNGDSSTSQETDSCTPITSEVSDTMVCQSSSTVGQSFSEQHISQLQESIRAEIPCEDEQEQEHNGPLDNKGKSTAGNFLVNPLEPKNAEKLKVKIADLGNACWVHKHFTEDIQTRQYRSLEVLIGSGYNTPADIWSTACMAFELATGDYLFEPHSGEEYTRDEDHIALIIELLGKVPRKLIVAGKYSKEFFTKKGDLKHITKLKPWGLFEVLVEKYEWSQEEAAGFTDFLLPMLELIPEKRATAAECLRHPWLNS
notes: SRPK1 PURIFICATION FROM HELA CELL S100 EXTRACTS; endogenous in cells; host or cells: HeLa cells (S100 extract; phosphocellulose P11, Phenyl Sepharose, Mono Q, Mono S)
Usually Km stands for the substrate concentration at which the rate is half of its maximum. On to B1, for which the Michaelis-Menten constant (Km) stood at 10 µM.
